Earlier results in publication PMC4301871, “WW Domains of the Yes-Kinase-Associated-Protein (YAP) Transcriptional Regulator Behave as Independent Units with Different Binding Preferences for PPxY Motif-Containing Ligands” (PLoS ONE, 2015).
Like-named read-outs stand apart in the source and are kept apart here.

Legend:
p53BP2 (Homo sapiens) [1] = target: p53BP2 (Homo sapiens)
p53BP2 (Homo sapiens) [2] = target: p53BP2 (Homo sapiens); remark: listed apart in the source

YAP WW2, sequence (P46937 227-266): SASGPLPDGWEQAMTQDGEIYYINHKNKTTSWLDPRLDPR
YAP WW1, sequence (P46937 168-207): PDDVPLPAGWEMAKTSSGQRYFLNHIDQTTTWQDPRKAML

Kd (p53BP2 (Homo sapiens) [1]) [µM] | Kd (p53BP2 (Homo sapiens) [2]) [µM] | Substance
1.8 |  | YAP WW1 (from UniProt P46937)
 | 12 | YAP WW2 (from UniProt P46937)
